The values below come from US20260055430, “[…] WITH ALTERED […] ACTIVITY” (Flagship Pioneering Innovations VI, LLC, published 2026).

One series relates to Int138 (Integrase 1116). As to the kind of experiment: cell_activity. The conditions noted are these: HEK293T, template with ~500 bp region containing attP; attP from Table 2.
The next series has as its system Int106 (Integrase 1223). Put plainly: cell_activity. The conditions noted are these: ~500 bp region template.
For series [1], the system named is Int29/Int105 (Integrase 477). Put plainly: cell_activity. Conditions: Int29; same accession as Int105 gave 0.77.
A further series has as its system Int30 (Integrase 436). Put plainly: cell_activity. The conditions noted are these: ~500 bp region template.
The next series relates to Int104 (Integrase 1222). As to the kind of experiment: cell_activity. The conditions noted are these: ~500 bp region template.
The next series relates to Int17 (Integrase 1206). As to the kind of experiment: cell_activity. Conditions: ~500 bp region template.
The next series deals with Int171 (Integrase 450). As to the kind of experiment: cell_activity. Conditions: ~500 bp region template.
For the next series, the target named is T1, Int94 (Integrase 1219) (UniProt A7GVM1).
T1 sequence: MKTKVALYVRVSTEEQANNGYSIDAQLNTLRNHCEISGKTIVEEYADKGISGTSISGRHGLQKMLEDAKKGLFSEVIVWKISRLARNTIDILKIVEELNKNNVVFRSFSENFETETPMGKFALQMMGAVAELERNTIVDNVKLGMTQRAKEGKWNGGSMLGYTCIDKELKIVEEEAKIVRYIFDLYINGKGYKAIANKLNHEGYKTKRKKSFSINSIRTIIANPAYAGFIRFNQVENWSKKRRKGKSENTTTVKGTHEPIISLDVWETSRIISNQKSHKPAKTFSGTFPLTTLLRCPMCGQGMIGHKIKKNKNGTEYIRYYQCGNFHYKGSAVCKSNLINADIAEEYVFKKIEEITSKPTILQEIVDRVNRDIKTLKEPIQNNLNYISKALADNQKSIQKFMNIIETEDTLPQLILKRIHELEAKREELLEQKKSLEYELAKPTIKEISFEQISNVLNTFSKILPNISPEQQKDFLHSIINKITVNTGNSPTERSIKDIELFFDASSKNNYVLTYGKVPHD
Put plainly: cell_activity. Conditions: ~500 bp region template.

In another series the test system is Int22 (Integrase 1207). As to the kind of experiment: cell_activity. Conditions: ~500 bp region template.
In a further series the test system is Int182 (Integrase 1227). Put plainly: cell_activity. Conditions: ~500 bp region template.
The target in the next series is T2, Int192 (Integrase 165) (UniProt C9DC17 C9DC17:1-507).
T2 sequence: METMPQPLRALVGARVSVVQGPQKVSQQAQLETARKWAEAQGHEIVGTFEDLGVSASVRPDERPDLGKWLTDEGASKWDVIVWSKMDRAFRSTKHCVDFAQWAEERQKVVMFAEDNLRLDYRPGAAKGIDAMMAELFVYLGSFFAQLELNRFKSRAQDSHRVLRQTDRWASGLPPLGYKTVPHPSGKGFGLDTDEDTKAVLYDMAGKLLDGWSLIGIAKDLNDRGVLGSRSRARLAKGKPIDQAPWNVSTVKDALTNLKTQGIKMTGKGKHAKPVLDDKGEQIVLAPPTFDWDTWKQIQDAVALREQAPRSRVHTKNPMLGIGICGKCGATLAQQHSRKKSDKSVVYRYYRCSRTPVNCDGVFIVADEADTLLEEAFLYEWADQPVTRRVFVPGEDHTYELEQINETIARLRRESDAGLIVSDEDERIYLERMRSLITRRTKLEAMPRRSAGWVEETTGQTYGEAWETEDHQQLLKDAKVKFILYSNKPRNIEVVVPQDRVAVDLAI
Put plainly: cell_activity; ~500 bp region template.

For the next series, the target named is T3, Int103 (Integrase 1221) (UniProt Q928V6 Q928V6:1-452).
T3 sequence: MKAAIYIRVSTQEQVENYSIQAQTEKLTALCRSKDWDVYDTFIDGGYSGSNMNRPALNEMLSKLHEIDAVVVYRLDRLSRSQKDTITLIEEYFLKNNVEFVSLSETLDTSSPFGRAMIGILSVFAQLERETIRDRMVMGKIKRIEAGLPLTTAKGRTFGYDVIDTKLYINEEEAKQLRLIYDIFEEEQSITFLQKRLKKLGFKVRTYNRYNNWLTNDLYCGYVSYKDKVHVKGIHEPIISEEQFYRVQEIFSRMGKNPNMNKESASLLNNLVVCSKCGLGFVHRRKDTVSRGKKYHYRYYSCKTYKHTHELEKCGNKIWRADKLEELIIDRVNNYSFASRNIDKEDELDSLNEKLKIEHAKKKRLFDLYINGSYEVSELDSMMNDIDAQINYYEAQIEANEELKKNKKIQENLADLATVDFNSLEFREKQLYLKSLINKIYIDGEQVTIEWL
As to the kind of experiment: cell_activity; ~500 bp region template.

A further series concerns the target T4, Int60 (Integrase 27) (UniProt Q858X3 Q858X3:1-594).
T4 sequence: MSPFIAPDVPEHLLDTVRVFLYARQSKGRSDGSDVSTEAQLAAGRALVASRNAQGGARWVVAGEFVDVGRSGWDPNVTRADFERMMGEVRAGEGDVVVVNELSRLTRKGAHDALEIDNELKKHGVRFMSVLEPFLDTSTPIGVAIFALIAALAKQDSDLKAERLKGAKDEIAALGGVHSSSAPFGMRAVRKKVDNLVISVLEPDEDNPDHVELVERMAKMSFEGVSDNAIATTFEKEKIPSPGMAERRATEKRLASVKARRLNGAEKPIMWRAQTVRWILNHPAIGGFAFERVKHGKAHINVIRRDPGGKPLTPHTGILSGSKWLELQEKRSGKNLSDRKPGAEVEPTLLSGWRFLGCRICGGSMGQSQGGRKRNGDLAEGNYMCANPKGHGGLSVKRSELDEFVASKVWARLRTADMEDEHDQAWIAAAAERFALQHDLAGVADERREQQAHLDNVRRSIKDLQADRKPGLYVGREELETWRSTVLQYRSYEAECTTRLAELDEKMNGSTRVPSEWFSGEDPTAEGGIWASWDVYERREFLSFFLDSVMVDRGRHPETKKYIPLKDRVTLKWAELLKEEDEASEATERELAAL
As to the kind of experiment: cell_activity; ~500 bp region template.

In turn, “TGTAGTAAGTATCTTAATATACAGCTTTATCTGTTTTTTAAGATACTTACTACTTT (double strand) [1116 attP]” gave an activity with Int138 (Integrase 1116) of 27.6 % GFP+. With “CAATGAAAAACTAGGCATGTAGAAGTTGTTTGT (double strand) [1223 attP]”, the activity with Int106 (Integrase 1223) stood at 1.77 % GFP+. The molecule “TTCCTCGTTTTCTCTCGTTGGAAGAAGAAGAAACGAGAAA (double strand) [477 attP]” registered an activity in series [1] of 0.91 % GFP+. The molecule “ATTTTAGGTATATGATTTTGTTTATTAGTGTAAATAACACTATGTACCTAAAAT (double strand) [436 attP]” gave an activity in the series on Int30 (Integrase 436) of 10.1 % GFP+. Consider “TTCCTCGTTTTCTCTCGTTGGACGGAAACGAATCGAGAAA (double strand) [1222 attP]”, for which the activity in the series with Int104 (Integrase 1222) turned out to be 0.58 % GFP+. Regarding “GTTAGGTGTATATCATACCTAACGCAATTCATTACATCACATATGTTATACACCTACTTTAA (double strand) [1206 attP]”, the activity in the series with Int17 (Integrase 1206) is 0.123 % GFP+. As for “TATTAGTATAGAAGAAAGCTCTCAGCACACGTGGAGTGTGTTGCTCTCTGCTCGTAAAGCCT (double strand) [450 attP]”, in the series on Int171 (Integrase 450), the activity was 0.16 % GFP+.

In turn, “CAATAACGGTTGTATTTGTAGAACTTGACCAGTTGTTTTAGTAACATAAATACAACTCCGAATA (double strand) [1219 attP]” displayed an activity in the series with Int94 (Integrase 1219) of 0.23 % GFP+. Turning to “AAAAGAATCCAAATTATCGTACTTTAACATAGTGAATACTGTCCATCATGTATAAAAGTACG (double strand) [1207 attP]”, the activity with Int22 (Integrase 1207) worked out at 0.16 % GFP+. As to “AAATATAACCTGTGTATTGAAACAAGGTGCTGATAAAACCCTTTCATAAACACAAGTAAATA (double strand) [1227 attP]”, the activity in the series with Int182 (Integrase 1227) is 0.22 % GFP+.

B1: 165 attP (dsDNA)
DNA 1: TAGTTTCCAATGTTACAGGAACTGCTGGCAGAATCCAACACATTGGAAGTCG
DNA 2: CGACTTCCAATGTGTTGGATTCTGCCAGCAGTTCCTGTAACATTGGAAACTA
Consider B1, for which, in the series with Int192 (Integrase 165), the activity came out at 0.57 % GFP+.

B2: 1221 attP (dsDNA)
DNA 1: GTTTAGTATCTCGTTATCTCTCGTTGGAGGGAGAAGAAACGGGATACCAAAA
DNA 2: TTTTGGTATCCCGTTTCTTCTCCCTCCAACGAGAGATAACGAGATACTAAAC
The molecule B2 gave an activity in the series with Int103 (Integrase 1221) of 0.22 % GFP+.

B3: 27 attP (dsDNA)
DNA 1: GGTGCTGGGTTGTTGTCTCTGGACAGTGATCCATGGGAAACTACTCAGCACC
DNA 2: GGTGCTGAGTAGTTTCCCATGGATCACTGTCCAGAGACAACAACCCAGCACC
On to B3, for which the activity with Int60 (Integrase 27) amounted to 0.17 % GFP+.
